The supplement of paper PMC9112550, “Optimization of the antimicrobial peptide Bac7 by deep mutational scanning” (BMC Biology, 2022)

What follows are sequences tested on Escherichia coli TOP10 (assay: shrunken log2 fold change of peptide-encoding DNA abundance (4.5 h post-induction vs induction); higher = less antimicrobial activity (less host growth inhibition)). Conditions: time post-induction: 4.5 h; library: site-saturation at positions 5, 18, 19, 20.
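Note: peptides expressed intracellularly from a pBAD plasmid library in pooled LB shake-flask culture, induced with 0.3% L-arabinose, DNA abundance read by NGS, three biological replicates, DESeq2 with apeglm shrinkage.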

Sequence	shrunken log2 fold change
RRIRHRPPRLPRPRPRPQSPPRP	0.0863
RRIRHRPPRLPRPRPRPQSSPRP	-0.0152
RRIRHRPPRLPRPRPRPQVHPRP	-0.213
RRIRHRPPRLPRPRPRPQWRPRP	0.324
RRIRHRPPRLPRPRPRPQWWPRP	-0.0314
RRIRHRPPRLPRPRPRPQYIPRP	-0.621
RRIRHRPPRLPRPRPRPRACPRP	0.0227
RRIRHRPPRLPRPRPRPRAEPRP	0.12
RRIRHRPPRLPRPRPRPRAYPRP	-0.411
RRIRHRPPRLPRPRPRPRCWPRP	0.145
RRIRHRPPRLPRPRPRPRFFPRP	0.152
RRIRHRPPRLPRPRPRPRFKPRP	-0.153
RRIRHRPPRLPRPRPRPRGHPRP	-0.103
RRIRHRPPRLPRPRPRPRHKPRP	-0.556
RRIRHRPPRLPRPRPRPRHQPRP	0.0252
RRIRHRPPRLPRPRPRPRKDPRP	-0.0956
RRIRHRPPRLPRPRPRPRLPPRP	0.131
RRIRHRPPRLPRPRPRPRMRPRP	0.39
RRIRHRPPRLPRPRPRPRMTPRP	0.19
RRIRHRPPRLPRPRPRPRMWPRP	-0.237
RRIRHRPPRLPRPRPRPRNEPRP	-0.588
RRIRHRPPRLPRPRPRPRNMPRP	-0.65

Sequence	shrunken log2 fold change
RRIRHRPPRLPRPRPRPRPEPRP	-0.165
RRIRHRPPRLPRPRPRPRPWPRP	0.0732
RRIRHRPPRLPRPRPRPRQHPRP	0.0285
RRIRHRPPRLPRPRPRPRQNPRP	0.0341
RRIRHRPPRLPRPRPRPRRAPRP	0.21
RRIRHRPPRLPRPRPRPRSWPRP	0.129
RRIRHRPPRLPRPRPRPRTAPRP	0.264
RRIRHRPPRLPRPRPRPRTCPRP	-0.0538
RRIRHRPPRLPRPRPRPRVGPRP	0.371
RRIRHRPPRLPRPRPRPRVYPRP	-0.0307
RRIRHRPPRLPRPRPRPRYWPRP	0.319
RRIRHRPPRLPRPRPRPSAPPRP	-0.239
RRIRHRPPRLPRPRPRPSCFPRP	-0.257
RRIRHRPPRLPRPRPRPSCIPRP	-0.265
RRIRHRPPRLPRPRPRPSCQPRP	-0.31
RRIRHRPPRLPRPRPRPSCTPRP	-0.263
RRIRHRPPRLPRPRPRPSETPRP	-0.0359
RRIRHRPPRLPRPRPRPSEVPRP	-0.277
RRIRHRPPRLPRPRPRPSFCPRP	-0.507
RRIRHRPPRLPRPRPRPSGGPRP	-0.0256
RRIRHRPPRLPRPRPRPSHAPRP	0.0238
RRIRHRPPRLPRPRPRPSMEPRP	-0.424

Sequence	shrunken log2 fold change
RRIRHRPPRLPRPRPRPSMGPRP	-0.149
RRIRHRPPRLPRPRPRPSNCPRP	-0.337
RRIRHRPPRLPRPRPRPSNDPRP	-0.849
RRIRHRPPRLPRPRPRPSPIPRP	-0.175
RRIRHRPPRLPRPRPRPSPLPRP	-0.223
RRIRHRPPRLPRPRPRPSPPPRP	-0.0717
RRIRHRPPRLPRPRPRPSRTPRP	0.138
RRIRHRPPRLPRPRPRPSTCPRP	-0.0299
RRIRHRPPRLPRPRPRPSTHPRP	-0.564
RRIRHRPPRLPRPRPRPSVLPRP	-0.242
RRIRHRPPRLPRPRPRPSVWPRP	-0.151
RRIRHRPPRLPRPRPRPSWFPRP	-0.408
RRIRHRPPRLPRPRPRPSWRPRP	-0.0493
RRIRHRPPRLPRPRPRPSWSPRP	-0.235
RRIRHRPPRLPRPRPRPTCTPRP	0.141
RRIRHRPPRLPRPRPRPTDDPRP	0.0853
RRIRHRPPRLPRPRPRPTDMPRP	0.151
RRIRHRPPRLPRPRPRPTEKPRP	0.0288
RRIRHRPPRLPRPRPRPTERPRP	0.18
RRIRHRPPRLPRPRPRPTEYPRP	-0.301
RRIRHRPPRLPRPRPRPTLAPRP	0.382
RRIRHRPPRLPRPRPRPTLHPRP	0.0488

Sequence	shrunken log2 fold change
RRIRHRPPRLPRPRPRPTPRPRP	0.609
RRIRHRPPRLPRPRPRPTPTPRP	0.138
RRIRHRPPRLPRPRPRPTRSPRP	-0.0409
RRIRHRPPRLPRPRPRPTRTPRP	0.365
RRIRHRPPRLPRPRPRPTTFPRP	0.0797
RRIRHRPPRLPRPRPRPTTSPRP	-0.146
RRIRHRPPRLPRPRPRPTYLPRP	-0.133
RRIRHRPPRLPRPRPRPVACPRP	0.00664
RRIRHRPPRLPRPRPRPVFTPRP	-0.392
RRIRHRPPRLPRPRPRPVGCPRP	0.0698
RRIRHRPPRLPRPRPRPVGEPRP	0.053
RRIRHRPPRLPRPRPRPVHYPRP	-0.495
RRIRHRPPRLPRPRPRPVIEPRP	-0.0264
RRIRHRPPRLPRPRPRPVIHPRP	-0.283
RRIRHRPPRLPRPRPRPVINPRP	-0.242
RRIRHRPPRLPRPRPRPVIWPRP	-0.134
RRIRHRPPRLPRPRPRPVKCPRP	-0.00443
RRIRHRPPRLPRPRPRPVLAPRP	0.126
RRIRHRPPRLPRPRPRPVLEPRP	0.338
RRIRHRPPRLPRPRPRPVLPPRP	-0.0347
RRIRHRPPRLPRPRPRPVLRPRP	-0.0204
RRIRHRPPRLPRPRPRPVMAPRP	-0.27

Sequence	shrunken log2 fold change
RRIRHRPPRLPRPRPRPVMSPRP	-0.0285
RRIRHRPPRLPRPRPRPVMYPRP	-1.29
RRIRHRPPRLPRPRPRPVNIPRP	-0.459
RRIRHRPPRLPRPRPRPVNSPRP	0.158
RRIRHRPPRLPRPRPRPVNTPRP	-0.18
RRIRHRPPRLPRPRPRPVQIPRP	-0.0126
RRIRHRPPRLPRPRPRPVSEPRP	-0.254
RRIRHRPPRLPRPRPRPVSFPRP	0.00493
RRIRHRPPRLPRPRPRPVSNPRP	-0.222
RRIRHRPPRLPRPRPRPVVCPRP	-0.184
RRIRHRPPRLPRPRPRPVWFPRP	0.0927
RRIRHRPPRLPRPRPRPVWPPRP	0.217
RRIRHRPPRLPRPRPRPWCIPRP	-0.228
RRIRHRPPRLPRPRPRPWDPPRP	-0.243
RRIRHRPPRLPRPRPRPWENPRP	0.0621
RRIRHRPPRLPRPRPRPWINPRP	-0.616
RRIRHRPPRLPRPRPRPWIQPRP	-0.0803
RRIRHRPPRLPRPRPRPWKAPRP	0.00938
RRIRHRPPRLPRPRPRPWLTPRP	-0.00695
RRIRHRPPRLPRPRPRPWMPPRP	0.0474
RRIRHRPPRLPRPRPRPWNIPRP	-0.246
